Tests used:
Assay in all cases: cell-based or functional assay
[1] = molecular target: hum-X VEGF (mouse VEGF-A with 10 residues replaced by the human residues)
[2] = molecular target: murine VEGF-A (muVEGF164) (mouse) (UniProt Q00731)
[3] = molecular target: human VEGF-A (huVEGF165) (human) (UniProt P15692)
UniProt P15692, sequence (P15692 other isoform, or with tags, fused parts or gaps): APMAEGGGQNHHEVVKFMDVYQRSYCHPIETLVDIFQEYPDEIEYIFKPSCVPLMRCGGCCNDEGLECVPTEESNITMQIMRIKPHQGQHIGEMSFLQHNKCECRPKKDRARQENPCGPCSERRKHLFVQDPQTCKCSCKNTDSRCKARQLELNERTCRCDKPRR

UniProt Q00731, sequence (Q00731 other isoform, or with tags, fused parts or gaps): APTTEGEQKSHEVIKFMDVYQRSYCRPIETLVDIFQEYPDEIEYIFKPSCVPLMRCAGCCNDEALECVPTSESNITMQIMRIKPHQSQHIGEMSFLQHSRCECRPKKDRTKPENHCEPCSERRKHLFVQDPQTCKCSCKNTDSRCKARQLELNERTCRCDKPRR

IC50, inhibition of VEGF-stimulated bovine retinal capillary endothelial cell proliferation [1] [µg/mL]	IC50, inhibition of VEGF-stimulated bovine retinal capillary endothelial cell proliferation [2] [µg/mL]	IC50, inhibition of VEGF-stimulated bovine retinal capillary endothelial cell proliferation [3] [µg/mL]	Substance
0.0061			G6-31 (antibody)
0.076	0.5	0.052	B20-4.1 (antibody)
0.0027		0.00075	Y0317 (antibody)

From patent publication US20100162415A1
